Measurements as given in publication PMC6657595, “A DNA-Binding Protein Tunes Septum Placement during Bacillus subtilis Sporulation”.
Numbering of substitutions follows the chain as printed.

Columns and labels:
[1] = target: T1, RefZ E117G-His6 E117G (Bacillus subtilis 168) (UniProt O34970); assay: EMSA; conditions: 150 mM KCl, 10 mM Tris-HCl pH 8.0; EMSA 10 nM DNA, 30 min, gel at room temperature; BLI 800 nM protein, 30 C
T1 sequence: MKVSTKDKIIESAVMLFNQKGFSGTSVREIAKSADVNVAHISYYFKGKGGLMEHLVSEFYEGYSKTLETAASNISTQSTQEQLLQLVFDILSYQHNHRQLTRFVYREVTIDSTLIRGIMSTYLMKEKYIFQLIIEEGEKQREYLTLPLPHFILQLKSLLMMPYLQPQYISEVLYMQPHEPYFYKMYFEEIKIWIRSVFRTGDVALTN

[2] = target: T2, RefZ R102C-His6 R102C (Bacillus subtilis 168) (UniProt O34970); assay: EMSA; conditions: 150 mM KCl, 10 mM Tris-HCl pH 8.0; EMSA 10 nM DNA, 30 min, gel at room temperature; BLI 800 nM protein, 30 C
T2 sequence: T1 sequence with R102C, G117E

[3] = target: T3, RefZ E117D-His6 E117D (Bacillus subtilis 168) (UniProt O34970); assay: EMSA; conditions: 150 mM KCl, 10 mM Tris-HCl pH 8.0; EMSA 10 nM DNA, 30 min, gel at room temperature; BLI 800 nM protein, 30 C
T3 sequence: T1 sequence with G117D

[4] = target: T4, RefZ R116S-His6 R116S (Bacillus subtilis 168) (UniProt O34970); assay: EMSA; conditions: 150 mM KCl, 10 mM Tris-HCl pH 8.0; EMSA 10 nM DNA, 30 min, gel at room temperature; BLI 800 nM protein, 30 C
T4 sequence: T1 sequence with R116S, G117E

[5] = target: T5, RefZ E179K-His6 E179K (Bacillus subtilis 168) (UniProt O34970); assay: EMSA; conditions: 150 mM KCl, 10 mM Tris-HCl pH 8.0; EMSA 10 nM DNA, 30 min, gel at room temperature; BLI 800 nM protein, 30 C
T5 sequence: T1 sequence with G117E, E179K

[6] = target: T6, RefZ-His6 (WT) (Bacillus subtilis PY79) (UniProt O34970); assay: EMSA; conditions: 150 mM KCl, 10 mM Tris-HCl pH 8.0; EMSA 10 nM DNA, 30 min, gel at room temperature; BLI 800 nM protein, 30 C
T6 sequence: T1 sequence with G117E

[7] = target: T7, RefZ R116W-His6 R116W (Bacillus subtilis 168) (UniProt O34970); assay: EMSA; conditions: 150 mM KCl, 10 mM Tris-HCl pH 8.0; EMSA 10 nM DNA, 30 min, gel at room temperature; BLI 800 nM protein, 30 C
T7 sequence: T1 sequence with R116W, G117E

[8] = target: T8, RefZ E53K-His6 E53K (Bacillus subtilis 168) (UniProt O34970); assay: EMSA; conditions: 150 mM KCl, 10 mM Tris-HCl pH 8.0; EMSA 10 nM DNA, 30 min, gel at room temperature; BLI 800 nM protein, 30 C
T8 sequence: T1 sequence with E53K, G117E

[9] = target: T9, RefZ R102S-His6 R102S (Bacillus subtilis 168) (UniProt O34970); assay: EMSA; conditions: 150 mM KCl, 10 mM Tris-HCl pH 8.0; EMSA 10 nM DNA, 30 min, gel at room temperature; BLI 800 nM protein, 30 C
T9 sequence: T1 sequence with R102S, G117E

[10] = target: T10, RefZ L153R-His6 L153R (Bacillus subtilis 168) (UniProt O34970); assay: EMSA; conditions: 150 mM KCl, 10 mM Tris-HCl pH 8.0; EMSA 10 nM DNA, 30 min, gel at room temperature; BLI 800 nM protein, 30 C
T10 sequence: T1 sequence with G117E, L153R

[11] = target: T11, RefZ E61K-His6 E61K (Bacillus subtilis 168) (UniProt O34970); assay: EMSA; conditions: 150 mM KCl, 10 mM Tris-HCl pH 8.0; EMSA 10 nM DNA, 30 min, gel at room temperature; BLI 800 nM protein, 30 C
T11 sequence: T1 sequence with E61K, G117E

[12] = target: RefZ-His6 (wild-type RefZ) (Bacillus subtilis); assay: crystal structure; RefZ-His6 at ~5 mg/ml, dialyzed into 50 mM Tris-HCl pH 8.5, 300 mM KCl with RBM dsDNA added (4:1 RefZ:DNA); hanging-drop vapor diffusion at 16°C; no DNA seen in the crystal; one molecule in the asymmetric unit of a P4(1)2(1)2 lattice; 2.6 Å
RefZ-His6 (WT) = target: T12, RefZ-His6 (WT) (Bacillus subtilis PY79, UniProt O34970 1-207); assay: BLI; Kd value only in Fig. 6 image; reference; 150 mM KCl, 10 mM Tris-HCl pH 8.0; EMSA 10 nM DNA, 30 min, gel at room temperature; BLI 800 nM protein, 30 C; conditions: protein: recombinant; tags: C-terminal His6 (pET-24b NheI/XhoI); chain copies: 2; label: 5' biotin on S27 strand; blunt
T12 sequence: T1 sequence with G117E

RefZ E117G-His6 = target: T13, RefZ E117G-His6 (Bacillus subtilis 168, UniProt O34970 1-207, E117G); assay: BLI; within 2-fold of WT, P = 0.025; 150 mM KCl, 10 mM Tris-HCl pH 8.0; EMSA 10 nM DNA, 30 min, gel at room temperature; BLI 800 nM protein, 30 C; conditions: protein: recombinant; tags: C-terminal His6 (pET-24b NheI/XhoI); chain copies: 2; label: 5' biotin on S27 strand; blunt
T13 sequence: T1 sequence

RefZ E179K-His6 = target: T14, RefZ E179K-His6 (Bacillus subtilis 168, UniProt O34970 1-207, E179K); assay: BLI; Kd within 2-fold of WT; 150 mM KCl, 10 mM Tris-HCl pH 8.0; EMSA 10 nM DNA, 30 min, gel at room temperature; BLI 800 nM protein, 30 C; conditions: protein: recombinant; tags: C-terminal His6 (pET-24b NheI/XhoI); chain copies: 2; label: 5' biotin on S27 strand; blunt
T14 sequence: T1 sequence with G117E, E179K

RefZ R102C-His6 = target: T15, RefZ R102C-His6 (Bacillus subtilis 168, UniProt O34970 1-207, R102C); assay: as above; conditions: protein: recombinant; tags: C-terminal His6 (pET-24b NheI/XhoI); chain copies: 2; label: 5' biotin on S27 strand; blunt
T15 sequence: T1 sequence with R102C, G117E

RefZ E117D-His6 = target: T16, RefZ E117D-His6 (Bacillus subtilis 168, UniProt O34970 1-207, E117D); assay: as above; conditions: protein: recombinant; tags: C-terminal His6 (pET-24b NheI/XhoI); chain copies: 2; label: 5' biotin on S27 strand; blunt
T16 sequence: T1 sequence with G117D

RefZ R116S-His6 = target: T17, RefZ R116S-His6 (Bacillus subtilis 168, UniProt O34970 1-207, R116S); assay: as above; conditions: protein: recombinant; tags: C-terminal His6 (pET-24b NheI/XhoI); chain copies: 2; label: 5' biotin on S27 strand; blunt
T17 sequence: T1 sequence with R116S, G117E

RefZ E53K-His6 = target: T18, RefZ E53K-His6 (Bacillus subtilis 168, UniProt O34970 1-207, E53K); assay: as above; conditions: protein: recombinant; tags: C-terminal His6 (pET-24b NheI/XhoI); chain copies: 2; label: 5' biotin on S27 strand; blunt
T18 sequence: T1 sequence with E53K, G117E

RefZ E61K-His6 = target: T19, RefZ E61K-His6 (Bacillus subtilis 168, UniProt O34970 1-207, E61K); assay: as above; conditions: protein: recombinant; tags: C-terminal His6 (pET-24b NheI/XhoI); chain copies: 2; label: 5' biotin on S27 strand; blunt
T19 sequence: T1 sequence with E61K, G117E

RefZ R102S-His6 = target: T20, RefZ R102S-His6 (Bacillus subtilis 168, UniProt O34970 1-207, R102S); assay: as above; conditions: protein: recombinant; tags: C-terminal His6 (pET-24b NheI/XhoI); chain copies: 2; label: 5' biotin on S27 strand; blunt
T20 sequence: T1 sequence with R102S, G117E

ATCAGCGCTCTGGTGATTGCAAGCTGCTGCTGTTGACCGCCTTTTCGTTTTGAACAAACGTTTGATTAAAACAAATAGCCCCCTCTGTTTAGCCGGAGTCGGCCTAATACAGCGACAATCTGCCCCGGGCGAAGCTAAGGCTGTGCAAAA (double strand) [RBML1 150-bp probe]
binding [1]: binds
binding [2]: binds
binding [3]: binds
binding [4]: binds
binding [5]: binds
binding [6]: binds
binding [7]: binds
binding [8]: binds
binding [9]: binds
binding [10]: binds more weakly
binding [11]: binds

RefZ-His6 (wild-type RefZ) (natural protein)
stoichiometry N [12]: 2

B1: RBML1 41-bp (dsDNA)
DNA 1: GCCTTTTCGTTTTGAACAAACGTTTGATTAAAACAAATAGC
DNA 2: GCTATTTGTTTTAATCAAACGTTTGTTCAAAACGAAAAGGC
binding result (RefZ-His6 (WT)): binds
binding result (RefZ E117G-His6): binds
binding result (RefZ E179K-His6): binds
binding result (RefZ R102C-His6): binds
binding result (RefZ E117D-His6): binds
binding result (RefZ R116S-His6): binds
binding result (RefZ E53K-His6): binds
binding result (RefZ E61K-His6): binds
binding result (RefZ R102S-His6): binds
